T1: Livin-β (UniProt Q96CA5-2 1-280, limits assumed)
T1 construct: the beta isoform is meant; also called Livin (beta)
T1 sequence (looked up): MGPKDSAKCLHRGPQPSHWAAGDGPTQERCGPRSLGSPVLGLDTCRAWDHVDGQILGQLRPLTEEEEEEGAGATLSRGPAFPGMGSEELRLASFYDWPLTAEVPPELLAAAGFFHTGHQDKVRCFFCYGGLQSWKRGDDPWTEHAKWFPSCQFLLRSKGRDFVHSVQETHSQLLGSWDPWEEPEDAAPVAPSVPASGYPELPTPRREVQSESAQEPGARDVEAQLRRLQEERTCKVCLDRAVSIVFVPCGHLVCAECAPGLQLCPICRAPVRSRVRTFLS

B1: peptide number 5 (peptide, not shown: large carriers)
chain: GSRFRVFVCSLFSFLSGRGGGVVVLRSAEIYES
notes: that construct is not described for linear peptides
B2: peptide number 7 (peptide, not shown: large carriers)
chain: GPFKRCHERLVAFARCWFMWSMVLRSAEIYES
notes: as for B1
B3: peptide number 77 (peptide, not shown: large carriers)
chain: GPFSEHARGHVVTICRLRLLFWLLRSAEIYES
notes: as for B1
B4: peptide number 15 (peptide, not shown: large carriers)
chain: GSGCGCFVRGRIVRIRCVILLLRVLRSAEIYES
notes: as for B1
B5: peptide number 65 (peptide, not shown: large carriers)
chain: GAGLGRVIRLRIVVLRCIFLLFRVLRSAEIYES
notes: as for B1
B6: peptide number 90 (peptide, not shown: large carriers)
chain: GPYPYLRILLVQKIACVRRALWVLRSAEIYES
notes: as for B1
B7: peptide number 69 (peptide, not shown: large carriers)
chain: GPFPFDYPRWIMIVLLRGVLRSAEIYES
notes: as for B1
B8: peptide number 75 (peptide, not shown: large carriers)
chain: GSRCIRRRISILFFVFRVLRSRRVLRSAEIYES
notes: as for B1
B9: peptide number 40 (peptide, not shown: large carriers)
chain: GSGCVRIRVGIVRRMLFLRFVFLVP
notes: as for B1
B10: peptide number 16 (peptide, not shown: large carriers)
chain: GPHSSAHDRIWLRVRGLRIILLVLRSAEIYES
notes: as for B1
B11: peptide number 54 (peptide, not shown: large carriers)
chain: GPWWKDRGVLVRLCVLRLVVGVVLRSAEIYES
notes: Mammalian two-hybrid construct not described for linear peptides

Each binder was assayed against T2, Survivin (UniProt O15392 1-142) (assay: yeast two-hybrid).
T2 construct: construct not described; also called surivin
T2 sequence (O15392 whole entry): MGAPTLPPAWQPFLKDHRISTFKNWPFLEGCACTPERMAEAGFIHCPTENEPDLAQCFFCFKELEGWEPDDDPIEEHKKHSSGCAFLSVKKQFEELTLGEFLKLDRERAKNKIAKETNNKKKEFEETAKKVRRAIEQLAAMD

Binder	binding result
B1	no binding
B2	no binding
B3	no binding
B4	no binding
B5	no binding
B6	no binding
B7	no binding
B8	no binding
B9	no binding
B10	no binding
B11	no binding

These binders were tested against T3, c-IAP-2 (UniProt Q13489 1-604, limits assumed) (assay: yeast two-hybrid).
T3 construct: construct not described; also called c-LAP-2
T3 sequence (Q13489 whole entry): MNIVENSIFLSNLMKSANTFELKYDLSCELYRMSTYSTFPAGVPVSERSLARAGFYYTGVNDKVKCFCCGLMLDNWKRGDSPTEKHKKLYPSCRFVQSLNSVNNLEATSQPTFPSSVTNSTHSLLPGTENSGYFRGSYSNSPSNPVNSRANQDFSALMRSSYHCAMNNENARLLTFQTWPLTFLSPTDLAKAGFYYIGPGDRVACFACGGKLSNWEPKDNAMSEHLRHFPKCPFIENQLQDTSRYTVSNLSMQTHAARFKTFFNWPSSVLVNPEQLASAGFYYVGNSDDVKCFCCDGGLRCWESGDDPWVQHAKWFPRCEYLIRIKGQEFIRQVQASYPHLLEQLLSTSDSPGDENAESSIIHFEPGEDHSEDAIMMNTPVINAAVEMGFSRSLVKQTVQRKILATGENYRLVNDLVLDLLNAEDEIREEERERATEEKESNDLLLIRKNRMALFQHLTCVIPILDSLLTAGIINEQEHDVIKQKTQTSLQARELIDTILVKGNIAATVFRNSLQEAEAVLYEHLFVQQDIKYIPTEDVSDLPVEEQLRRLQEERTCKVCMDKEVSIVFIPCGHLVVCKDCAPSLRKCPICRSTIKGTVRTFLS

binding result	Binder
no binding	B1
no binding	B2
no binding	B3
no binding	B4
no binding	B5
no binding	B6
no binding	B7
no binding	B8
no binding	B9
no binding	B10
no binding	B11

These binders were tested against T4, XIAP (UniProt P98170 1-497, limits assumed) (assay: yeast two-hybrid).
T4 construct: construct not described
T4 sequence (P98170 whole entry): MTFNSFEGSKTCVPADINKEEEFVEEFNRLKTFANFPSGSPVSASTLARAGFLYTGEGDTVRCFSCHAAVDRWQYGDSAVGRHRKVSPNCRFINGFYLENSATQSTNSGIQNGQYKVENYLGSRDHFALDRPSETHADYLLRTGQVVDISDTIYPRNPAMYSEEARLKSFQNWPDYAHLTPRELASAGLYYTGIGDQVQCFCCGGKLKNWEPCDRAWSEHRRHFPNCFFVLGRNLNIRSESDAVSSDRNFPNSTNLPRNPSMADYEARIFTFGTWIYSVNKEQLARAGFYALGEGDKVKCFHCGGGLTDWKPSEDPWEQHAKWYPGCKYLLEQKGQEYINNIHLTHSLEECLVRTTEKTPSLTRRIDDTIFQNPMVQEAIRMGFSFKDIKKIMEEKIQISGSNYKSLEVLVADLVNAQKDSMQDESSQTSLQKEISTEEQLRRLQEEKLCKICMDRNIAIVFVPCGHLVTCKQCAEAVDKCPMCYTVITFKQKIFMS

binding result	Binder
no binding	B1
no binding	B2
binds	B3
no binding	B4
no binding	B5
no binding	B6
no binding	B7
no binding	B8
no binding	B9
no binding	B10
no binding	B11

These binders were tested against T5, c-IAP-1 (UniProt Q13490 1-618, limits assumed) (assay: yeast two-hybrid).
T5 construct: construct not described
T5 sequence (Q13490 whole entry): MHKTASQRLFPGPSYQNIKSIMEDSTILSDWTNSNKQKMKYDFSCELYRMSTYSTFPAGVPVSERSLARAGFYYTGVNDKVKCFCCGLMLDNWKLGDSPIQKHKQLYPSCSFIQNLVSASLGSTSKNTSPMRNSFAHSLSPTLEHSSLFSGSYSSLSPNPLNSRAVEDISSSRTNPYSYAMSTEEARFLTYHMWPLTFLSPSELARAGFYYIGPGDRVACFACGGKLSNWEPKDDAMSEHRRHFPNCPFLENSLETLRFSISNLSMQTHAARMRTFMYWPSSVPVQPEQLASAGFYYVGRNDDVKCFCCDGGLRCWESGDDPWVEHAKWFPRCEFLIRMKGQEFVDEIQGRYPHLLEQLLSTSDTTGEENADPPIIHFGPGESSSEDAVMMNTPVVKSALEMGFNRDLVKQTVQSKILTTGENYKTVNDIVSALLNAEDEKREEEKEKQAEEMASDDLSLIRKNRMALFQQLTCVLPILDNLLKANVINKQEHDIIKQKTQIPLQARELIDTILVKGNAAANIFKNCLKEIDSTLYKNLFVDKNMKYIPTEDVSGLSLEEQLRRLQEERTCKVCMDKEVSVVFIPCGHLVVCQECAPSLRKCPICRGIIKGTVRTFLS

binding result	Binder
no binding	B1
no binding	B2
no binding	B3
no binding	B4
no binding	B5
no binding	B6
no binding	B7
no binding	B8
no binding	B9
no binding	B10
no binding	B11

The binders below were run against T1, Livin-β (assay: yeast two-hybrid).

binding result	Binder
binds	B1
binds	B2
binds	B3
binds	B4
binds	B5
binds	B6
binds	B7
binds	B8
binds	B10
binds	B11
